The results in this text go back to patent publication US20090297524A1 (DOMANTIS, published 2009).

The assay addresses T1, Recombinant human CD40L (human, UniProt P29965 108-261, limits assumed).
T1 construct: also called CD40 ligand
T1 sequence (looked up): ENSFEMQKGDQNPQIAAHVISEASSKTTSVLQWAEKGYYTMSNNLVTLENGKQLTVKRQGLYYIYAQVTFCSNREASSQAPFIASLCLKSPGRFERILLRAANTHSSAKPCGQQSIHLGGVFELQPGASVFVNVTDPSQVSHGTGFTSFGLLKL
Briefly: CD40L/CD40-Fc receptor binding assay.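 Note: plate assay with coated human CD40-Fc, bound ligand detected via HRP anti-biotin antibody and TMB, OD at 450 nm, lower signal indicates stronger inhibition by dAb.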

B1: DOM-33 (other)
VL: DIQMTQSPSSLSASVGDRVTITCRASQTIGESLHWYQQKPGKAPRLLIYFASLLQSGVPSRFSGSGSGTDFTLTISSLQPEDFATYYCQQHHMLPSTFGQGTKVEIKR
notes: Vk dAb
For the molecule B1, the binding result is reported as “binds”.

B2: DOM-46 (other)
VH: EVQLLESGGGLVQPGGSLRLSCAASGFTFELYAMAWVRQAPGKGLEWVSGIGAVGETTYYADSVKGRFTISRDNSKNTLYLQMNSLRAEDTAVYYCAKEANNLSDNLVFDYWGQGTLVTVSS
notes: VH dAb
In the case of B2, the binding result is “binds”.

B3: DOM-21 (other)
VH: EVQLLESGGGLVQPGGSLRLSCAASGFTFANYEMGWARQAPGKGLEWVSVISEWGYSTYYADSAKGRFTISRDNSKNTLYLQMNSLRAEDTAVYYCAKLVGGTQYEFDYWGQGTLVTVSS
notes: VH dAb
Take B3: the binding result was “binds”.

B4: DOM.209 (other)
VH: EVQLLESGGGLVQPGGSLRLSCAASGFTFADYEMWWVRQAPGKGLEWVSAISRQGFATYYADSVKGRFTISRDNSKNTLYLQMNSLRAEDTAVYYCAKDLERDDFDYWGQGTLVTVSS
notes: VH dAb
Regarding B4, the binding result is recorded as “binds”.

B5: DOM-44 (other)
VH: EVQLLESGGGLVQPGGSLRLSCAASGFTFTSYEMGWVRQAPGKGLEWVSSIEPTGITTYYADSVKGRFTISRDNSKNTLYLQMNSLRAEDTAVYYCAKPHFTELGFDYWGQGTLVTVSS
notes: VH dAb
On to B5, for which the binding result was “binds”.

B6: DOM-39 (other)
VL: DIQMTQSPSSLSASVGDCVTITCRASQNIDGLLWWYQQKPGKAPKLLIYAGSGLQSGVPSRFSGSGSGTDFTLTISSLQPEDFATYYCQQKAFEPFTFGQGTKVEIKR
notes: Vk dAb
For B6, the binding result was “binds”.

B7: DOM-18 (other)
VH: EVQLLESGGGLVQPGGSLRLSCAASGFTFPEYDMTWVRQAPGKGLEWVSYISSDGYSTYYADSVKGRFTISRDNSKNTLYLQMNSLRAEDTAVYYCAKPHGSPREFDYWGQGTLVTVSS
notes: VH dAb
Turning to B7, the binding result is listed as “binds”.

B8: DOM-69 (other)
VH: EVQLLESGGGLVQPGGSLRLSCAASGFTFLDYGMAWVRQAPGKGLEWVSAISPLGLSTYYADSVKSRFTISRDNSKNTLYLQMNSLRAEDTAVYYCAKEVRVGRGVHPPKFDYWGQGTLVTVSS
notes: VH dAb
Consider B8, for which the binding result is recorded as “binds”.

B9: DOM-56 (other)
VH: EVQLLESGGGLVQPGGSLRLSCAASGFTFNDYTMGWVRQAPGKGLEWVSWIHGTGGQTYYADSVKGRFTISRDNSKNTLYLQMNSLRAEDTAVYYCAKALADRSGGVVEFDYWGQGTLVTVSS
notes: VH dAb
Turning to B9, the binding result is “binds”.

B10: DOM-55 (other)
VH: EVQLLESGGGLVQPGGSLRLSCAASGFTFARYEMGWVRQAPGKGLEWVSRITAQGLGTYYADSVKGRFTISRDNSKNTLYLQMNSLRAEDTAVYYCAKYLTDFSSGHQEFDYWGQGTLVTVSS
notes: VH dAb
As to B10, the binding result is on record as “binds”.

B11: DOM-53 (other)
VL: DIQMTQSPSSLSASVGDRVTITCRASQAIYGGLRWYQQKPGKAPKLLIYGESMLQSGVPSRFSGSGSGTDFTLTISSLHPEDFATYYCQQVYHKPFTFGQGTKVEIKR
notes: Vk dAb
Turning to B11, the binding result is given as “binds”.

B12: DOM-45 (other)
VH: EVQLLESGGGLVQPGGSLRLSCAASGFTFGNYAMAWVRQAPGKGLEWVSKIGAQGLHTYYAGSVKGRFTISRDNSKNTLYLQMNSLRAEDTAVYYCAKQTTMDYERFDYWGQGTLVTVSS
notes: VH dAb
Take B12: the binding result was “binds”.

B13: DOM-75 (other)
VH: EVQLLESGGGLVQPGGSLRLSCAASGFTFLQYPMGWVRQAPGKGLEWVSTISPVGLTTYYADSVKGRFTISRDNSKNTLYLQMNSLRAEDTAVYYCAKLFEGSRIQRDVGFDYWGQGTLVTVSS
notes: VH dAb
As to B13, the binding result is listed as “binds”.

B14: DOM-40 (other)
VH: EVQLLESGGGLVQPGGSLRLSCAASGFTFKAYDMGWVRQAPGKGLEWVSQIGRDGSFTYYADSVKGRFTISRDNSKNTLYLQMNSLRAEDTAVYYCAKPRRYAIFTFDRGQGTLVTVSS
notes: VH dAb
Turning to B14, the binding result is given as “binds”.

B15: DOM-34 (other)
VL: DIQMTQSPSSLSASVGDRVTITCRASQWIGDSLSWYQQKPGKAPKLLIYFASYLQSGVPTRFSGSGSGTDFTLTISSLQPEDFATYYCQQYFENPVTFGQGTKVGIKR
notes: Vk dAb
B15: the binding result is “binds”.

B16: DOM-50 (other)
VL: DIQMTQSPSSLSASVGDRVTITCRASQWIGDSLSWYQQKPGKAPKLLIYFGSYLQSGVPSRFSGSGSGTDFTLTISSLQPEDSATYYCQQYQYVPSTFGQGTKVEIKQ
notes: Vk dAb
Regarding B16, the binding result is “binds”.

B17: DOM-48 (other)
VL: DIQMTQSPSSLSASVGDRVTITCRASQWIGDSLSWYQQKPGKAPKLLIYFGSYLQNGVPSRFSGSGSGTDFTLTISSLQPEDFATYYCQQYMITPTTFGQGTKVEIKR
notes: Vk dAb
Consider B17, for which the binding result is given as “binds”.

B18: DOM-59 (other)
VH: EVQLLESGGGLVQPGGSLRLSCAASGFTFLDYAMGWVRQAPGKGLEWVSTISPMGMGTYYADSVKGRFTISRDNSKNTLYLQMNSLRAEDTAVYYCAKSSAISFTSDISNFDYWGQGTLVTVSS
notes: VH dAb
With B18, the binding result is “binds”.

B19: DOM-72 (other)
VH: EVQLLESGGGLVQPGGSLRLSCAASGFTFEAYPMSWVRQAPGKGLEWVSSISPLGLWTYYADSVKGRFTISRDNSKNTLYLQMNSLRAEDTAVYYCAKLSAGAETHVYRLFDYWGQGTLVTVSS
notes: VH dAb
As to B19, the binding result was “binds”.

B20: DOM-32 (other)
VH: EVQLLESGGGLVQPGGSLRLSCAASGFTFEVYQMGWVRQAPGKGLEWVSFIVPGGDLTYYADSVKGRFTISRDNSKNTLYLQMNSLRAEDTAVYYCAETWPEFDYWGQGTLVTVSS
notes: VH dAb
Turning to B20, the binding result is “binds”.

B21: DOM-51 (other)
VL: DIQMTQSPSSLSASVGDRVTITCRASQPIVDELDWYQQKPGKAPKLLIYAASILQSGVPSRFSGSGSGTDFTLTISSLQPEDFATYYCHQWSTYPTTFGQGTKVEIKR
notes: Vk dAb
B21: the binding result is “binds”.

B22: DOM-81 (other)
VH: EVQLLESGGGLVQPGGFLRLSCAASGFTFELYPMAWVRQAPGKGLEWVSSISPVGFLTYYADSVKGRFTISRDNSKNTLYLQMNSLRAEDTAVYYCAKGHEGSYTPRSAFDYWGQGTLVTVSS
notes: VH dAb
B22: the binding result is recorded as “binds”.

B23: DOM-17 (other)
VH: EVQLLESGGGLVQPGGSLRLSCAASGFTFEDYGMGWARQAPGKGLEWVSSIGPLGLWTYYADSAKGRFTISRDNSKNTLYLQMNSLRAEDTAVYYCAKSPLEGLITNFDYWGQGTLVTVSS
notes: VH dAb
For the molecule B23, the binding result is reported as “binds”.

B24: DOM-61 (other)
VH: EVQLLESGGGLVQPGGSLRLSCAASGFTFAAYAMTWVRQAPGKGLEWVSYISPNGTATYYADSVKGRFTISRDNSKNTLYLQMNSLRAEDTAVYYCAEYVGMRWNSFDYWGQGTLVTVSS
notes: VH dAb
As for B24, the binding result is on record as “binds”.

B25: DOM-12 (other)
VH: EVQLLESGGGLVQPGGSLRLSCAASGFTFRLYEMAWVRQAPGKGLEWVSGIDILGSRTYYADSVKGRFTISRDNSKNTLYLQMNSLRAEDTAVYYCAKDLSWQGFDYWGQGTLVTVSS
notes: VH dAb
For the molecule B25, the binding result is on record as “binds”.

B26: DOM-54 (other)
VH: EVQLLESGGGLVQPGGSLRLSCAASGFTFTAYRMAWVRQAPGKGLEWVSWISPSGSGTYYADSVKGRFTISRDNSKNTLYLQMNSLRAEDTAVYYCAKTLTDSPSGHYEFDYWGQGTLVTVSS
notes: VH dAb
Regarding B26, the binding result is recorded as “binds”.

B27: DOM.207 (other)
VH: EVQLLESGGGLVQPGGSLRLSCAASGFTFDKYLMSWVRQAPGKGLEWVSGIEPLGDVTYYADSVKGRFTISRDNSKNTLYLQMNSLRAEDTAVYYCAKEASGDFDYWGQGTLVTVSS
notes: VH dAb
On to B27, for which the binding result is “binds”.

B28: DOM-13 (other)
VH: EVQLLESGGGLVQPGGSLRLSCAASGFTFSYYSMYWVRQAPGKGLEWVSSISPFGWGTYYADSVKGRFTISRDNSKDTLYLQMNSLRAEDTAVYYCAKYGETSGPISENFDYWGQGTLVTVSS
notes: VH dAb
As to B28, the binding result was “binds”.

B29: DOM-16 (other)
VH: EVQLLESGGGLVQPGGSLRLSCAASGFTFMEYAMIWVRQAPGKGLEWVSIISPLGLSTYYADSVKGRFTISRDNSKNTLYLQMNSLRAEDTAVYYCAKYQDSSDSQYTNFDYWGQGTLVTVSS
notes: VH dAb
As to B29, the binding result is reported as “binds”.

B30: DOM-70 (other)
VH: EVQLLESGGGLVQPGGSLRLSCAASGFTFENYAMSWVRQAPGKGLEWVSTIAPLGVPTYYADSVKGRFTISRDNSKNTLYLQMNSLRAEDTAVYYCAKKKVGAWLQSRSFDYWGQGTLVTVSS
notes: VH dAb
With B30, the binding result is on record as “binds”.

B31: DOM-71 (other)
VH: EVQLLESGGGLVQPGGSLRLSCAASGFTFEGYPMSWVRQAPGKGLEWVSTISPLGPDTYYADSVKGRFTISRDNSKNTLYLQMNSLRAEDTAVYYCAKLLMGEYLNSRTFDYWGQGTLVTVSS
notes: VH dAb
In the case of B31, the binding result is given as “binds”.
